Here are results for two molecules from US7507716B2, “Method for treating pain with prolactin antagonists” (Board of Regents, The University of Texas System, priority 2005, dated 2009).

One test relates to PRL-R. The experiment in a line: Western blot of PRL-R isoforms in TG of OVX rats. It is filed as in vivo, rat. To be noted: TG of OVX rats, 2, 20 or 80 μg/kg s.c. daily for 10 days. An excerpt: There are two isoforms of the rat PRL receptor (PRL-R) that differ in the length of their cytoplasmic tail and are therefore termed the long and short isoforms. […] Moreover, the differential expression of these receptors is regulated by estrogen in certain tissues (Sakaguchi et al., 1994; Pi et al., 2003). To determine whether estrogen regulates the expression of the PRL-R in the female TG, protein extracts prepared from TG of OVX rats and subjected to Western blot analysis using an anti-PRL-R antibody that recognizes both the long and the short PRL-R isoforms. FIG. 3A depicts a representative immunoblot of this experiment. The antibody recognized two bands migrating at approximately 100 KDa and 40 KDa corresponding to the long and short PRL-R isoforms respectively. Blots were stripped and probed with an antibody against beta-actin to normalize for loading differences. […] The data are presented as mean±SEM (n=4/group, *=p<0.05 and **=p<0.01; one-way ANOVA with Bonferroni's post hoc test).
At the end of the 10th day, animals were used for behavioral experiments or sacrificed by decapitation and the TG of each individual animal were harvested. Harvested tissue was used for RNA isolation, total protein isolation, or for preparing primary cultures of TG neurons. […]

For a further test, the system named is TG neurons. Put plainly: Patch clamp, capsaicin-induced currents (Icap). Type of test: cell-based, rat. Here is the method: Since application of PRL rapidly increases capsaicin-induced calcium accumulation and neuropeptide release, the role of PRL in modulating capsaicin-induced currents (Icap) was examined. TRPV1 desensitization of cultured TG neurons was induced through the repeated application of 100 nM capsaicin to the cultures (Vellani et al., 2001; Bonnington and McNaughton, 2003). The sub-maximal concentration of capsaicin used was effective in inducing desensitization and permitted the investigation PRL-evoked re-sensitization or further sensitization of TRPV1. […] Data are presented as mean±SEM of PRL-treated ΔIcap (3rd Icap-2^ndIcap) normalized to vehicle treated ΔIcap, (n=8-12/group, *=p<0.05 and **=p<0.01; two-way ANOVA). […] Acutely dissociated TG neurons from female rats were locally pretreated with vehicle or PRL (40 nM) for 60 sec, washed for 60 sec and subjected to a single capsaicin pulse (40 sec, 0.1 nM-5 μM). Data are shown as mean±SEM (n=12-20/group, *=p<0.05 and ***=p<0.001 vehicle vs. PRL; two-way ANOVA). FIGS. 5C and 5D depict representative traces of Icap recordings from intact (FIG. 5C) and OVX (FIG. 5D) female rat TG neurons. Concentration of applied CAP and PRL are indicated. The duration CAP and PRL treatment was 30 sec and 60 sec, respectively. The magnitude of the second capsaicin-evoked inward currents (Icap) peak was subtracted from the third Icap peak to calculate the difference (ΔIcap). Data were normalized to the vehicle treated ΔIcap.
Patch Clamp Electrophysiology: All recordings were performed in whole-cell voltage-clamp (Vh=−60 mV) configuration. Recordings were acquired at 22-24° C. from the somata of neurons (15-45 pF) using an Axopatch200B amplifier and pCLAMP9.0 software (Axon Instruments, Union City, Calif.). Data were filtered at 0.5 kHz and sampled at 2 kHz. Borosilicate pipettes (Sutter, Novato, Calif.) were polished to resistances of 3-5 MΩ in pipette solution. Access resistance was compensated (40-80%) to 7-10 MΩ values when appropriate. Cell diameters were calculated using d=√[100*Cm/π], where d (μm) is cell diameter and Cm (pF) is membrane capacitance.
Standard external solution (SES) had the composition as described above. […] Drugs were applied using a fast, computer controlled pressure-driven 8-channel system (ValveLink8; AutoMate Scientific, San Francisco, Calif.).
FIG. 11B summarizes the effect of adding rhPRL on Icap of cultured TG neurons from male, female and OVX female rats. Number of recorded neurons and neurons in which effects were observed are indicated above the bars. The recordings were performed in whole-cell voltage clamp c(Vh=−60 mV) configuration. Solutions are SES and SIS.

`C[C@]12CC[C@@H]3c4ccc(O)cc4CC[C@H]3[C@@H]1CC[C@@H]2O` [estradiol, 17-β-estradiol]: in the test with PRL-R, the “expression of the long form of PRL-R” value is listed as “increases expression of the long form of PRL-R in the TG of OVX rats in a dose-dependent manner” and the “expression of the short form of the PRL-R” value was “does not appear to significantly affect expression of the short form of the PRL-R”.

B1: PRL: Ovine PRL [oPRL-21, BIO] provided by NHPP; prolactin polypeptide hormone (protein, UniProt P01240 31-229, looked up)
Prolactin: TPVCPNGPGNCQVSLRDLFDRAVMVSHYIHNLSSEMFNEFDKRYAQGKGFITMALNSCHTSSLPTPEDKEQAQQTHHEVLMSLILGLLRSWNDPLYHLVTEVRGMKGVPDAILSRAIEIEEENKRLLEGMEMIFGQVIPGAKETEPYPVWSGLPSLQTKDEDARHSAFYNLLHCLRRDSSKIDTYLKLLNCRIIYNNNC
Regarding B1, in the test on TG neurons (PRL 40 nM 60 sec, single capsaicin pulse 0.1 nM-5 μM, female rat TG neurons), the “effect of PRL pretreatment on capsaicin potency (Icap)” value is “increased capsaicin potency”. Moreover, in the test on TG neurons (TRPV1-desensitized TG neurons from naive female rats, 100 nM capsaicin), the “concentration of maximal potentiation of Icap” value is listed as 40 nM. In addition, the EC50 in the test on TG neurons (TRPV1-desensitized TG neurons from naive female rats, 100 nM capsaicin, read-out: EC50 of Icap sensitization) was 0.27 nM. Further, in the test on TG neurons (rat OVX TG neurons), the “effect on Icap” value was “had no observed effect”.
